Test [1] has as its target HA of Perth/16 (H3N2) virus (influenza A virus A/Perth/16/2009 (H3N2)). In words: cell-based or functional assay.
Test [2] addresses HA of A/California/04/2009 (H1N1pdm09) (influenza A virus A/California/04/2009 (H1N1pdm09)). In words: cell-based or functional assay.
Test [3] shares this target.
Test [4] concerns the target three viruses, CA04, Egypt, and Anhui/1. As to the kind of experiment: cell-based or functional assay.
Test [5] concerns the target recombinant HA protein of Egypt (H5N1 type) (influenza A virus, 'Egypt' (H5N1)).
Test [6] addresses recombinant HA protein of A/Perth/16/2009 (H3N2) (influenza A virus A/Perth/16/2009 (H3N2)).
The target of test [7] is recombinant HA protein of A/Netherland/219/2003 (H7N7) (influenza A virus A/Netherland/219/2003 (H7N7)).
The target of test [8] is recombinant HA protein of A/California/07/2009 (H1N1pdm09) (influenza A virus A/California/07/2009 (H1N1pdm09)).

By Kd is commonly meant the equilibrium constant for the complex coming apart.

With CR9114 (antibody), the values for the IC 50, neutralization test 1 (Pre), CPE on MDCK cells in test [1] and in test [2] were 25 µg/mL and 7.4 µg/mL, respectively. Further, in test [3], the apparent rate constant k obs, fold over that of S9-1-10/5-1 was 11.6 fold.

B1: S9-1-10/5-1 (antibody, V domains shown)
VH: QLHLQESGPGLLKPSATLSLTCTVSGGSMNNYYWSWVRQAPGKGLEWIGYIFHSGSTNYSPPLKSRVTISIDTATNQFFLRLNSVTAADTAVYYCARMSRGVFSSSRFFGLDVWGRGTAVAVSS
VL: EIVLTQSPATLSVSPGERATLSCRASQSVASNLAWYQQKPGQAPRLLISAASTRATDIPARFSGSGSGTEFTLTISSLQSEDFAVYYCQQYNNWLSFTFGPGTKVDMKG
Regarding B1, the IC 50, neutralization test 2 (Post), CPE on MDCK cells in test [4] lay within 0.55 to 8.8 µg/mL. The Kd in test [5] came to 0.14 nM; in test [6], 34 nM; in test [7], 0.9 nM; in test [8] it was 0.0085 nM.

(Values after patent publication WO2018038096A1.)
